Positions count from the first letter of the chain named. Numbers in names are those of the source.
T1: recombinant human IL-23R/Fc chimera (R&D Systems) (human, UniProt Q5VWK5 24-353)
T1 construct: bought; also called human IL-23R/Fc fusion protein; rhIL23RFc
T1 sequence (looked up): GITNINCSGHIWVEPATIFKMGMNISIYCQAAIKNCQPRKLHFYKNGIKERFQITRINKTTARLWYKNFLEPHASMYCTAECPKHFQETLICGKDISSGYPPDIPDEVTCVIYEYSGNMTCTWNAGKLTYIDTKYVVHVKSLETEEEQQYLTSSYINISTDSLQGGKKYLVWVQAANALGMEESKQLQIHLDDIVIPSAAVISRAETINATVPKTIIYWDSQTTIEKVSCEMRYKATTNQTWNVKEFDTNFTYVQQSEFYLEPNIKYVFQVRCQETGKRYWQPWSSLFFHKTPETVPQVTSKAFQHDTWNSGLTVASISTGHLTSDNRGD

T2: recombinant human IL-12Rβ2/Fc fusion protein (R&D Systems) (human, UniProt Q99665 24-622, limits assumed)
T2 construct: bought; also called Il12Rb2
T2 sequence (looked up): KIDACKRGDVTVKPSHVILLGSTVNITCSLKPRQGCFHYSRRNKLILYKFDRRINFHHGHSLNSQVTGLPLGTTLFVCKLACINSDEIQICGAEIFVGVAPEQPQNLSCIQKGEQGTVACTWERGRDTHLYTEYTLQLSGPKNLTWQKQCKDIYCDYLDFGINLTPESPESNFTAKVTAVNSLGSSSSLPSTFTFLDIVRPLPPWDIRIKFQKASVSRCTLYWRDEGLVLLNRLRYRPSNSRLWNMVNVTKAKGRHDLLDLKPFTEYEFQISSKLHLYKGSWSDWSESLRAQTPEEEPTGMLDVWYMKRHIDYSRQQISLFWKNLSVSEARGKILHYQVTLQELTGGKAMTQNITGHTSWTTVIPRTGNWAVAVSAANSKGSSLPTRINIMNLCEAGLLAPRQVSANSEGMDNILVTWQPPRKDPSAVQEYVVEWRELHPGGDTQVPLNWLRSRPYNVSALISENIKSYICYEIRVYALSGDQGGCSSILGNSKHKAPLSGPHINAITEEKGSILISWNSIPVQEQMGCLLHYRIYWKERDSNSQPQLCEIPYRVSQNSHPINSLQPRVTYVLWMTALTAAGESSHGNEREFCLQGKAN

B1: 101-80-5H3 ATRIMER (designed binder)
chain: EPPTQKPKKIVNAKKDVVNTKMFEELKSRLDTLAQEVALLKEQQALQTVCLKGTKVHMKCFLAFTQTKTFHEASEDCISRGGTLSTPQTGSENDALYEYLRQSVGNEAEIWLGLNGSALTNTWVDMTGARIAYKNWEPPAPYHPMAAGVFGENCAVLSGAANGKWFDKRCRDQLPYICQFGIV
modifications: ATRIMER is a homotrimer; one protomer is given.
notes: one residue deleted from Loop 4 (-GVFG); the GlyGly to AlaAla change; not shown: C-terminal purification tag: Myc/His6 (pANA4) or HA-StrepII (pANA10)
B2: 8b6b (=A1H) DR 5 ATRIMER (designed binder)
chain: EPPTQKPKKIVNAKKDVVNTKMFEELKSRLDTLAQEVALLKEQQALQTVCLKGTKVHMKCFLAFTQTKTFHEASEDCISRGGTLSTPQTGSENDALYEYLRQSVGNEAEIWLGLNRAVLRPRWVDMTGARIAYKNWETEITAQPDGGWVLGGKNCAVLSGAANGKWFDKRCRDQLPYICQFGIV
modifications: Homotrimer (ATRIMER) of this chain; one protomer is given.
notes: also called 029-15.A1H; not shown: C-terminal tag (His/Myc of pANA4, HA-StrepII of pANA10, or that of pANA19)
B3: A9E ATRIMER (designed binder)
chain: EPPTQKPKKIVNAKKDVVNTKMFEELKSRLDTLAQEVALLKEQQALQTVCLKGTKVHMKCFLAFTQTKTFHEASEDCISRGGTLSTPQTGSENDALYEYLRQSVGNEAEIWLGLNGSALTNTWVDMTGARIAYKNWETEITAQPDGGLGYWGENCAVLSGAANGKWFDKRCRDQLPYICQFGIV
B4: 101-113-6C108 ATRIMER (designed binder)
chain: B3 chain with T138P, E139P, I140P, T141P, A142H, Q143H, D145M, L148F, Y150V, W151F
B5: 1a7b (=A8G) DR 5 ATRIMER (designed binder)
chain: B2 chain with V118W, W148T, V149L, L150V, G151S, K153E
modifications: Homotrimer (ATRIMER) of this chain; one protomer is given.
notes: also called 029-15.A8G; not shown: C-terminal tag (His/Myc of pANA4, HA-StrepII of pANA10, or that of pANA19)
B6: 4G8 ATRIMER (designed binder)
chain: B3 chain with A118R, L119R, T120S, N121G, T122V, L148F, Y150V, W151F
modifications: Forms a homotrimer through the tetranectin coiled coil; one protomer is given.
notes: made in E. coli; also called 001-69.4G8; ATRIMER complex 4G8
B7: 105-08-1A3 ATRIMER (designed binder)
chain: B3 chain with A118P, L119R, N121D, L148W, Y150V, W151F
notes: not shown: C-terminal tag: Myc/His6 (pANA4) or HA-StrepII (pANA10); A Ser left at the ompA junction may also sit at the N-terminus
B8: 105-20-2F12 ATRIMER (designed binder)
chain: B3 chain with A118K, N121D, L148F, W151F
notes: not shown: C-terminal tag: His/Myc (pANA4) or HA-StrepII (pANA10)
B9: 101-51-1A7 ATRIMER (designed binder)
chain: B3 chain with T138R, E139P, I140P, T141L, A142Y, D145G, L148W, Y150V, W151F
B10: 105-20-2A3 ATRIMER (designed binder)
chain: B3 chain with A118P, L119I, L148F, W151F
notes: as for B7
B11: 101-51-1A4 ATRIMER (designed binder)
chain: B3 chain with T138R, E139P, I140A, T141L, A142V, D145R, L148F, Y150V, W151F
notes: also called ATRIMER complex 1A4
B12: 9b3d (=B3D) DR 5 ATRIMER (designed binder)
chain: EPPTQKPKKIVNAKKDVVNTKMFEELKSRLDTLAQEVALLKEQQALQTVCLKGTKVHMKCFLAFTQTKTFHEASEDCISRGGTLSTPQTGSENDALYEYLRQSVGNEAEIWLGLNELRTDGLWVDMTGARIAYKNWETEITAQPDGGVMRRSENCAVLSGAANGKWFDKRCRDQLPYICQFGIV
modifications: Homotrimer (ATRIMER) of this chain; one protomer is given.
notes: also called 029-15.B3D; not shown: C-terminal tag (His/Myc of pANA4, HA-StrepII of pANA10, or that of pANA19)
B13: 014-42.3D11 ATRIMER (designed binder)
chain: EPPTQKPKKIVNAKKDVVNTKMFEELKSRLDTLAQEVALLKEQQALQTVCLKGTKVHMKCFLAFTQTKTFHEASEDCISRGGTLSTPQTGSENDALYEYLRQSVGNEAEIWLGLNGWLEGAGWVDMTGARIAYKNWETEITAQPDGGWHWRWENCAVLSGAANGKWFDKRCRDQLPYICQFGIV
modifications: Homotrimer (ATRIMER) of this chain; one protomer is given.
notes: not shown: C-terminal tag (His/Myc of pANA4, HA-StrepII of pANA10, or that of pANA19)
B14: 2a1a (=B9F) DR 5 ATRIMER (designed binder)
chain: B12 chain with E116K, L117R, R118V, T119W, D120Y, G121R, L122G, V148M, M149R, S152R
modifications: Homotrimer (ATRIMER) of this chain; one protomer is given.
notes: also called 029-15.B9F; not shown: C-terminal tag (His/Myc of pANA4, HA-StrepII of pANA10, or that of pANA19)

How the values were obtained:
[1] = molecular target: T1, recombinant human IL-23R/Fc chimera …; experiment: competition ELISA against IL-23
[2] = molecular target: T1, recombinant human IL-23R/Fc chimera …; experiment: SPR (Biacore), captured IL-23R/Fc, ATRIMER
Procedure: A Biacore 3000 biosensor (GE Healthcare) was used to evaluate the interaction of human IL-23R and receptor binders. Immobilization of an anti-human IgG Fc antibody (GE Heathcare) to the CM5 chip (Biacore) was performed using standard amine coupling chemistry, and this modified surface was used to capture a recombinant human IL-23R/Fc fusion protein (R&D Systems). A low-density receptor surface, less than 200 RU, was used for all of the analyses. ATRIMER™ polypeptide complex dilutions (1-500 nM) were injected over the IL-23R surface at 30 μl/min and kinetic constants were derived from the sensorgram data using the Biaevaluation software (version 3.1, GE Healthcare). Data collection was 3 minutes for the association and 5 minutes for dissociation. The anti-human IgG surface was regenerated with a 30 s pulse of 3M magnesium chloride. All sensorgrams were double-referenced against an activated and blocked flow-cell as well as buffer injections.

[3] = molecular target: recombinant human DR 5 receptor Fc fusion protein (R&D Systems) (human); experiment: SPR (Biacore), captured DR5/Fc
recombinant human DR 5 receptor Fc fusion protein (R&D Systems) (human), sequence (chain, as listed by the source): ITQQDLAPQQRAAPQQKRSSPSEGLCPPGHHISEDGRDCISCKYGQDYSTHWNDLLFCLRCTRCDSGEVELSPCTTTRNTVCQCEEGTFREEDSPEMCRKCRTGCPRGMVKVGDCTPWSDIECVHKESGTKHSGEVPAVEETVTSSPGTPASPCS

[4] = molecular target: T1, recombinant human IL-23R/Fc chimera …; experiment: competition ELISA against IL-23; remark: listed apart in the source
Procedure: Assays were performed generally as follows. Individual wells in Immulon HB2 plates were incubated overnight at 4° C. with 100 μL PBS containing 100 ng of an anti-human IgG Fc (R&D MAB 110 clone 97924). Plates were washed five times with PBS/0.05% Tween 20, and wells were incubated for 1.5 h at RT with 100 μL each of PBS containing 50 ng of recombinant human IL-23R/Fc. […] Competitor was included at a final concentration of 1 μg/mL. After incubation, plates were washed as described and wells were incubated for 40 min at RT with 100 μL each of PBS containing a 1:5000 dilution of streptavidin-HRP conjugate (Pierce catalog no. 21130). After washing, wells were incubated with 100 μL each of TMB (BioFX Lab catalog no. TMBH-1000-0) for up to 30 min at RT. Reactions were stopped with an equal volume of 0.2 M sulfuric acid.
A number of ATRIMER™ polypeptide complexes were tested in competition ELISA more extensively to determine IC50 values.

[5] = molecular target: T2, recombinant human IL-12Rβ2/Fc fusion …; experiment: Biacore, IL-12Rβ2/Fc captured
Procedure: (§1) A Biacore 3000 biosensor (GE Healthcare) was used to evaluate the interaction of human IL-12Rβ1/Fc or IL-12Rβ2/Fc with IL-23R binding ATRIMER™ complexes. Immobilization of an anti-human IgG Fc antibody (GE Healthcare) to the CM5 chip (GE Healthcare) was performed using standard amine coupling chemistry, and this modified surface was used to capture recombinant human IL-12Rβ1/Fc or IL-12Rβ2/Fc fusion protein (R&D Systems). A low-density receptor surface, less than 200 RU, was used for all of the analyses. ATRIMER™ complex dilutions (100 nM) were injected over the IL-12R surface at 30 μl/min. Data collection was 3 minutes for the association and 5 minutes for dissociation. The anti-human IgG surface was regenerated with a 30 s pulse of 3M magnesium chloride. All sensorgrams were double-referenced against an anti-human IgG Fc antibody surface as well as buffer injections.

[6] = molecular target: T3, recombinant human IL-12Rβ1/Fc fusion protein (R&D Systems) (human, UniProt P42701 24-540, limits assumed); experiment: Biacore, IL-12Rβ1/Fc captured
T3 construct: bought; also called Il12Rb1
Procedure: as §1

[7] = molecular target: recombinant human DR 4 receptor Fc fusion protein (R&D Systems) (human); experiment: SPR (Biacore), captured DR4/Fc
recombinant human DR 4 receptor Fc fusion protein (R&D Systems) (human), sequence (chain, as listed by the source): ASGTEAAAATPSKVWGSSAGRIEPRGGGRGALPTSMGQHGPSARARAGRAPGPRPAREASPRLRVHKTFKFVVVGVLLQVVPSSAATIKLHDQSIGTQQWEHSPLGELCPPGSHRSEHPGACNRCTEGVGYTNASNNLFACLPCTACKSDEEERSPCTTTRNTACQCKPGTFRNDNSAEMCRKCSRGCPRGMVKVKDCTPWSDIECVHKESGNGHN

Row | Binder | Ratio IC50 to 056-53.H4E IC50 [1] | Ka [2] | Kd [2] | koff [2] | kon [2] | other results
1 | B1 | 11.3 ratio | 1.55e+08 M⁻¹ | 6.46 nM | 0.000327 s⁻¹ | 50500 M⁻¹ s⁻¹ | 
2 | B2 |  |  |  |  |  | Ka [3]: 2.56e+07 M⁻¹; Kd [3]: 39.1 nM; koff [3]: 0.000506 s⁻¹; kon [3]: 12900 M⁻¹ s⁻¹
3 | B3 |  | 5.21e+08 M⁻¹ | 1.92 nM | 0.00033 s⁻¹ | 172000 M⁻¹ s⁻¹ | IC50 [4]: 2.6 nM
4 | B4 | 0.9 ratio | 1.63e+09 M⁻¹ | 0.613 nM | 0.000382 s⁻¹ | 623000 M⁻¹ s⁻¹ | binding result [5]: no binding (tested: 100 nM); binding result [6]: no binding (tested: 100 nM)
5 | B5 |  |  |  |  |  | Ka [3]: 6.43e+07 M⁻¹; Kd [3]: 15.6 nM; koff [3]: 0.000629 s⁻¹; kon [3]: 40500 M⁻¹ s⁻¹
6 | B6 |  | 1.35e+08 M⁻¹ | 7.42 nM | 0.000805 s⁻¹ | 109000 M⁻¹ s⁻¹ | IC50 [4]: 1.4 nM
7 | B7 | 1.1 ratio | 2.11e+09 M⁻¹ | 0.473 nM | 0.000348 s⁻¹ | 735000 M⁻¹ s⁻¹ | 
8 | B8 | 2.8 ratio | 5.41e+08 M⁻¹ | 1.85 nM | 0.000471 s⁻¹ | 254000 M⁻¹ s⁻¹ | 
9 | B9 | 1 ratio | 2.24e+09 M⁻¹ | 0.447 nM | 0.000187 s⁻¹ | 419000 M⁻¹ s⁻¹ | binding result [5]: no binding (tested: 100 nM); binding result [6]: no binding (tested: 100 nM)
10 | B10 | 1.2 ratio | 1.32e+09 M⁻¹ | 0.759 nM | 0.000312 s⁻¹ | 412000 M⁻¹ s⁻¹ | 
11 | B11 | 1 ratio | 2.58e+09 M⁻¹ | 0.388 nM | 0.000395 s⁻¹ | 1.02e+06 M⁻¹ s⁻¹ | binding result [5]: no binding (tested: 100 nM); binding result [6]: no binding (tested: 100 nM)
12 | B12 |  |  |  |  |  | Ka [3]: 1.11e+06 M⁻¹; Kd [3]: 899 nM; koff [3]: 0.000104 s⁻¹; kon [3]: 116 M⁻¹ s⁻¹
13 | B13 |  |  |  |  |  | Ka [7]: 2.53e+07 M⁻¹; Kd [7]: 39.5 nM; koff [7]: 0.000526 s⁻¹; kon [7]: 13300 M⁻¹ s⁻¹
14 | B14 |  |  |  |  |  | Ka [3]: 2.38e+07 M⁻¹; Kd [3]: 42.8 nM; koff [3]: 0.00184 s⁻¹; kon [3]: 43800 M⁻¹ s⁻¹

Source: patent US20110086770A1 (ANAPHORE, published 2011)
